Target: human PD-L1 expressed on the surface of cells (human, UniProt Q9NZQ7 19-290)
Assay: FACS binding to human lymphocytes

Chain of human PD-L1 expressed on the surface of cells (Q9NZQ7 19-290): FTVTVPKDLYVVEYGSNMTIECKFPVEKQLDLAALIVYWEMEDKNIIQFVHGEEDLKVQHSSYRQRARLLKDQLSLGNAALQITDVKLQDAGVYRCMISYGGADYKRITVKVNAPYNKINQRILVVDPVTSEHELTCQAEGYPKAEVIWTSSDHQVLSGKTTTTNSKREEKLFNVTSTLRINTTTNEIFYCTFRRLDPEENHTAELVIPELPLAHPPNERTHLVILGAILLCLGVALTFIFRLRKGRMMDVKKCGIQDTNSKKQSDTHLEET

Binder | EC50 [µg/mL]
H6 anti-PD-L1 antibody (antibody, V domains shown) VH: QMQLVQSGAEVKKPGSSVKVSCKASGGTFSSYAISWVRQAPGQGLEWMGGIIPIFGTANYAQKFQGRVTITADESTSTAYMELSSLRSEDTAVYYCARGNIVATITPLDYWGQGTLVTVSS VL: SYELMQPPSVSVAPGKTATIACGGENIGRKTVHWYQQKPGQAPVLVIYYDSDRPSGIPERFSGSNSGNTATLTISRVEAGDEADYYCQVWDSSSDHRIFGGGTKLTVL | 0.03
H10 anti-PD-L1 antibody (antibody, V domains shown) VH: EVQLVQSGGGLVQPGGSLRLSCAASGFTFSSYSMNWVRQAPGKGLEWVSYISSSSSTIYYADSVKGRFTISRDNAKNSLYLQMNSLRDEDTAVYYCARGDYYYGMDVWGQGTTVTVSS VL: EIVLTQSPSSLSASIGDRVTLTCRASQSIRRFLNWYQQKPGKAPELLIYTASSLQSGVPSRFSGSGSGTDFTLTINSLQPEDFATYYCQQSYAVSPYTFGQGTKVEIR | 0.021
